Results reported in patent US20190382503A1 (published 2019).

How the values were obtained:
[1] = target: T1, CD137 / 4-1BB (soluble antigen, form not stated) (UniProt Q07011 24-186, limits assumed); test: ELISA
T1 construct: also called biotinylated 4-1BB antigen; CD137 in ELISA

cynomolgus 5T4 on cells [2] = target: T2, cynomolgus 5T4 on cells (cynomolgus macaque, UniProt Q4R8Y9 35-420); test: flow cytometry, CHO-K1/cynomolgus 5T4 transfectants (FIG. 14)
T2 construct: whole, on cells; also called CHO-K1/cynomolgus 5T4
T2 sequence (looked up): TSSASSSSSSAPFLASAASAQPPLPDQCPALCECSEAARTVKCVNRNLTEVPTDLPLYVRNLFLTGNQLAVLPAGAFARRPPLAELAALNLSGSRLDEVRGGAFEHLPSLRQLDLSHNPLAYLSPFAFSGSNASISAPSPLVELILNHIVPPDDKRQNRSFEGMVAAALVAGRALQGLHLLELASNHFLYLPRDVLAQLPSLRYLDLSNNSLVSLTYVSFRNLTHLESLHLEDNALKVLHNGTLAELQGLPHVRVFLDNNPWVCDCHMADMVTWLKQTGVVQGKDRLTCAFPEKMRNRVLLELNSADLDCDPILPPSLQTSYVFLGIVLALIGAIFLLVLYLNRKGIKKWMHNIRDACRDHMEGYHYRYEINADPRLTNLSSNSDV
Procedure: (§1) Binding studies were performed by standard flow cytometry-based staining procedures two cell lines expressing 5T4:CHO-K1 cells (obtained from Alligator) transduced with human or cynomolgus macaque 5T4 and SKOV-3 human ovarian adenocarcinoma cells which express (human) 5T4. All labeling and washes were performed in U-bottom 96-well plates in saline buffer with 0.1% BSA and 2 mM EDTA. Cell were plated at approximately 100,000 cells per well and incubated with a range of 100 nM to 0.05 nM concentrations of test molecules in 50 μL volume/well, for 30 minutes on ice. Cells were washed three times then incubated for another 30 min on ice with fluorescently-labeled secondary polyclonal antibody, F(ab′)² goat anti-human IgG (Jackson ImmunoResearch Laboratories). The cells were then washed twice and the samples acquired in a BD LSRII or a Symphony A3 flow cytometer. The sample files were analyzed using FlowJo software; the mean fluorescence intensity (MFI-mean) or median fluorescence intensity (MFI-median) of the live population of cells in each well was calculated after gating on live cells (forward vs side scatter). Nonlinear regression analysis to determine EC₅₀ values was performed in GraphPad Prism 6® graphing and statistics software.
All the constructs bound with EC₅₀ values in the range of 1 to 3 nM. […]

[3] = target: T3, recombinant human 5T4 extracellular domain (human, UniProt Q13641 32-355); test: SPR, Biacore T200, bispecific captured by anti-human IgG, monomeric ECD injected, 1:1 model
T3 construct: The entry starts at Met 1; also called Hu 5T4; 5T4 ECD
T3 sequence: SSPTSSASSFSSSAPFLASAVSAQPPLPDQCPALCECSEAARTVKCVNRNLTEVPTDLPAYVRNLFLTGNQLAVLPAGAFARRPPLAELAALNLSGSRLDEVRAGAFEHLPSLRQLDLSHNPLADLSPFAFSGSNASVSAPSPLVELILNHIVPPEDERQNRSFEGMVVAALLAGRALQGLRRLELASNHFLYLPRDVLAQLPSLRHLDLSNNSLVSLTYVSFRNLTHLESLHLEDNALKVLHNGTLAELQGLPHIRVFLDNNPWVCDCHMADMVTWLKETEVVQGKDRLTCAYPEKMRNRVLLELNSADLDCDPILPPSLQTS
Procedure: (§2) Goat anti-human IgG F(ab′)2 fragment (Jackson ImmunoResearch) at 20 μg/mL in 10 mM sodium acetate (pH 4.5) was immobilized at a density of 2000 response units (RU) onto the flow cell of a CM5 research-grade sensor chip (GE) by standard amine coupling chemistry. Each bispecific variant at 200 nM in HBS-EP+ buffer was captured in the flow cell with the immobilized anti-human IgG at a flow rate of 50 μL/min for 60 sec to reach ˜500 RU response, leaving one flow cell surface unmodified as the reference. Following a 30 sec stabilization period, four different concentrations of each ECD (0, 20, 60, and 180 nM) were injected at 50 μL/min for either 120 sec followed by a 240 sec dissociation period (for 5T4) or 90 sec followed by a 180 sec dissociation period (for 4-1BB). Regeneration was achieved by duplicate injections of 10 mM glycine (pH 1.5) at a flow rate of 50 μL/min for 30 sec followed by HBS-EP+ buffer stabilization for 1 min.
(§3) Sensorgrams obtained from kinetic SPR measurements were analyzed by the double subtraction method. The signal from the reference flow cell was subtracted from the analyte binding response obtained from flow cells with immobilized or captured ligands. Buffer reference responses were then averaged from multiple injections. The averaged buffer reference responses were then subtracted from analyte binding responses, and the final double-referenced data were analyzed with Biacore T200 Evaluation software (2.0, GE), globally fitting data to derive kinetic parameters. All sensorgrams were fitted using a simple one-to-one binding model.

[4] = target: T4, recombinant human CD137 extracellular domain (human, UniProt Q07011 24-186); test: as above
T4 construct: The entry starts at Met 1; also called Hu CD137; 4-1BB ECD
Procedure: as §2, §3

cynomolgus 5T4 on cells [5] = target: T2, cynomolgus 5T4 on cells; test: flow cytometry, CHO-K1/cynomolgus 5T4 transfectants (FIG. 7)
Procedure: as §1

human 5T4 on cells = target: T5, human 5T4 on cells (human, UniProt Q13641 32-420); test: flow cytometry, SKOV-3 cells (FIG. 6)
T5 construct: Human 5T4 on transfected cells (CHO-K1, CT26, B16) or endogenous on human tumour lines; the cell line is named under assay; also called trophoblast glycoprotein; TPBG
T5 sequence: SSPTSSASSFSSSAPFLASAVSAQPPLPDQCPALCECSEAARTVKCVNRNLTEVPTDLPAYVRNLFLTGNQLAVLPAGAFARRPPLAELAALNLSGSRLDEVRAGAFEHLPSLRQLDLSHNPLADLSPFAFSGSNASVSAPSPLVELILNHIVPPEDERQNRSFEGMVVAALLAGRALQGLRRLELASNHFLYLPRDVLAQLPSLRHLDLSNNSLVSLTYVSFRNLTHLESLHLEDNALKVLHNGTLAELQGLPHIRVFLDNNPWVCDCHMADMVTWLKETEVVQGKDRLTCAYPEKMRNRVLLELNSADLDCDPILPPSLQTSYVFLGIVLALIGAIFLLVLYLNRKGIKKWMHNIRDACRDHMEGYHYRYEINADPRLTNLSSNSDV
Procedure: as §1
The differences in EC₅₀ values between constructs were more evident when binding assays were conducted on SKOV-3 cells. […]

B1: ALG.APV-210 (bispecific antibody)
chain: EVQLLESGGGLVQPGGSLRLSCAASGFTFSHGSMYWVRQAPGKGLEWVSSISSGSGSTYYADSVKGRFTISHDNSKNTLYLQMNSLRAEDTAVYYCARSSYYGSYYSIDYWGQGTLVTVSSGGGGSGGGGSGGGGSGGGGSDIQMTQSPSSLSASVGDRVTITCRASQSISSYLNWYQQKPGKAPKLLIYAASSLQSGVPSRFSGSGSGTDFTLTISSLQPEDFATYYCQQYYDNLPTFGQGTKLEIKEPKSSDKTHTCPPCPAPEAAGAPSVFLFPPKPKDTLMISRTPEVTCVVVDVSHEDPEVKFNWYVDGVEVHNAKTKPREEQYNSTYRVVSVLTVLHQDWLNGKEYKCAVSNKALPAPIEKTISKAKGQPREPQVYTLPPSRDELTKNQVSLTCLVKGFYPSDIAVEWESNGQPENNYKTTPPVLDSDGSFFLYSKLTVDKSRWQQGNVFSCSVMHEALHNHYTQKSLSLSPGSGGGGSGGGGSGGGGSPSEVQLLESGGGLVQPGGSLRLSCAASGFTFSSYAMSWVRQAPGKCLEWVSAISGSGGSTYYADSVKGRFTISRDNSKNTLYLQMNSLRAEDTAVYYCARYYGGYYSAWMDYWGQGTLVTVSSGGGGSGGGGSGGGGSGGGGSDIQMTQSPSSLSASVGDRVTITCRASQSISSFLNWYQQKPGKAPKLLIYAASSLQSGVPSRFSGSGSGTDFTLTISSLQPEDSATYYCQQTYGYLHTFGCGTKLEIKR
notes: scFv-Fc-scFv (ADAPTIR) homodimer with stabilizing disulfide in the 1210 scFv; also called ALG.APV-223; 5T4-CD137 bispecific antibody
EC50 [1]: 0.7 nM | binding result (cynomolgus 5T4 on cells [2]): binds | Kd [3]: 79 nM | koff [3]: 0.0012 s⁻¹ | kon [3]: 15000 M⁻¹ s⁻¹ | Kd [4]: 59 nM | koff [4]: 0.033 s⁻¹ | kon [4]: 550000 M⁻¹ s⁻¹

B2: ALG.APV-187 (bispecific antibody)
chain: EVQLLESGGGLVQPGGSLRLSCAASGFTFSHGSMYWVRQAPGKGLEWVSSISSGSGSTYYADSVKGRFTISHDNSKNTLYLQMNSLRAEDTAVYYCARSSYYGSYYSIDYWGQGTLVTVSSGGGGSGGGGSGGGGSGGGGSDIQMTQSPSSLSASVGDRVTITCRASQSISSYLNWYQQKPGKAPKLLIYAASSLQSGVPSRFSGSGSGTDFTLTISSLQPEDFATYYCQQYYDNLPTFGQGTKLEIKSSEPKSSDKTHTCPPCPAPEAAGAPSVFLFPPKPKDTLMISRTPEVTCVVVDVSHEDPEVKFNWYVDGVEVHNAKTKPREEQYNSTYRVVSVLTVLHQDWLNGKEYKCAVSNKALPAPIEKTISKAKGQPREPQVYTLPPSRDELTKNQVSLTCLVKGFYPSDIAVEWESNGQPENNYKTTPPVLDSDGSFFLYSKLTVDKSRWQQGNVFSCSVMHEALHNHYTQKSLSLSPGSGGGGSGGGGSGGGGSPSEVQLLESGGGLVQPGGSLRLSCAASGFTFSSYAMSWVRQAPGKCLEWVSAISGSGGSTYYADSVKGRFTISRDNSKNTLYLQMNSLRAEDTAVYYCARYYGGYYSAWMDYWGQGTLVTVSSGGGGSGGGGSGGGGSGGGGSDIQMTQSPSSLSASVGDRVTITCRASQSISSFLNWYQQKPGKAPKLLIYAASSLQSGVPSRFSGSGSGTDFTLTISSLQPEDSATYYCQQTYGYLHTFGCGTKLEIKR
notes: scFv-Fc-scFv (ADAPTIR) homodimer with stabilizing disulfide in the 1210 scFv
binding result (cynomolgus 5T4 on cells [5]): binds | Kd [3]: 35 nM | koff [3]: 0.00072 s⁻¹ | kon [3]: 21000 M⁻¹ s⁻¹ | Kd [4]: 73 nM | koff [4]: 0.027 s⁻¹ | kon [4]: 370000 M⁻¹ s⁻¹

B3: ALG.APV-196 (bispecific antibody)
chain: EVQLLESGGGLVQPGGSLRLSCAASGFTFSYGSMYWVRQAPGKGLEWVSSISSGSGSTYYADSVKGRFTISHDNSKNTLYLQMNSLRAEDTAVYYCARSSYYGSYYSIDYWGQGTLVTVSSGGGGSGGGGSGGGGSGGGGSDIQMTQSPSSLSASVGDRVTITCRASQSISSYLNWYQQKPGKAPKLLIYAASSLQSGVPSRFSGSGSGTDFTLTISSLQPEDFATYYCQQYYDNLPTFGQGTKLEIKSSEPKSSDKTHTCPPCPAPEAAGAPSVFLFPPKPKDTLMISRTPEVTCVVVDVSHEDPEVKFNWYVDGVEVHNAKTKPREEQYNSTYRVVSVLTVLHQDWLNGKEYKCAVSNKALPAPIEKTISKAKGQPREPQVYTLPPSRDELTKNQVSLTCLVKGFYPSDIAVEWESNGQPENNYKTTPPVLDSDGSFFLYSKLTVDKSRWQQGNVFSCSVMHEALHNHYTQKSLSLSPGSGGGGSGGGGSGGGGSPSEVQLLESGGGLVQPGGSLRLSCAASGFDFESYAMSWVRQAPGKCLEWVSAISGSGGSTYYADSVKGRFTISRDNSKNTLYLQMNSLRAEDTAVYYCARYYGGYYSAWMDYWGQGTLVTVSSGGGGSGGGGSGGGGSGGGGSDIQMTQSPSSLSASVGDRVTITCRASQSIRSALNWYQQKPGKAPKLLIYAASSLQSGVPSRFSGSGSGTDFTLTISSLQPEDFATYYCQQTYGYLHTFGCGTKLEIKR
notes: scFv-Fc-scFv (ADAPTIR) homodimer
binding result (human 5T4 on cells): binds | binding result (cynomolgus 5T4 on cells [5]): binds

B4: ALG.APV-198 (bispecific antibody)
chain: EVQLLESGGGLVQPGGSLRLSCAASGFTFSHGSMYWVRQAPGKGLEWVSSISSGSGSTYYADSVKGRFTISHDNSKNTLYLQMNSLRAEDTAVYYCARSSYYGSYYSIDYWGQGTLVTVSSGGGGSGGGGSGGGGSGGGGSDIQMTQSPSSLSASVGDRVTITCRASQSISSYLNWYQQKPGKAPKLLIYAASSLQSGVPSRFSGSGSGTDFTLTISSLQPEDFATYYCQQYYDNLPTFGQGTKLEIKSSEPKSSDKTHTCPPCPAPEAAGAPSVFLFPPKPKDTLMISRTPEVTCVVVDVSHEDPEVKFNWYVDGVEVHNAKTKPREEQYNSTYRVVSVLTVLHQDWLNGKEYKCAVSNKALPAPIEKTISKAKGQPREPQVYTLPPSRDELTKNQVSLTCLVKGFYPSDIAVEWESNGQPENNYKTTPPVLDSDGSFFLYSKLTVDKSRWQQGNVFSCSVMHEALHNHYTQKSLSLSPGSGGGGSGGGGSGGGGSPSEVQLLESGGGLVQPGGSLRLSCAASGFDFESYAMSWVRQAPGKCLEWVSAISGSGGSTYYADSVKGRFTISRDNSKNTLYLQMNSLRAEDTAVYYCARYYGGYYSAWMDYWGQGTLVTVSSGGGGSGGGGSGGGGSGGGGSDIQMTQSPSSLSASVGDRVTITCRASQSIRSALNWYQQKPGKAPKLLIYAASSLQSGVPSRFSGSGSGTDFTLTISSLQPEDFATYYCQQTYGYLHTFGCGTKLEIKR
notes: as for B3
binding result (human 5T4 on cells): binds | binding result (cynomolgus 5T4 on cells [5]): binds
